{
  "source": "patent US20090123479A1",
  "about": "(published 2009)",
  "binders": {"B1": {"name": "A3M0 (antibody, human IgG1, kappa, V domains shown)", "VH": "QVQLVQSGAEVKKPGSSVKVSCKASGYTFTSYGITWVRQAPGQGLEWMGENYPRSGNTYYNEKFKGRVTITADKSTSTAYMELSSLRSEDTAVYYCARSEFISTVVAPYYYALDYWGQGTLVTVSS", "VL": "DIVMTQSPDSLAVSLGERATINCKASKKVTIFGSISALHWYQQKPGQPPKLIYNGAKLESGVPDRFSGSGSGTDFTLTISSLQAEDVAVYYCLQNKEVPYTFGGGTKVEIKR", "notes": "Full length chains; also called humanized mAb A3M0"}, "B2": {"name": "chimeric 8C92H6 HC1LC1 (antibody, V domains shown)", "VH": "QVQLQQSGAELARPGTSVKLSCKASGYTFTSYGITWVKQRTGQGLEWIGENYPRSGNTYYNEKFKGKATLTADKSSSTAYMELRSLTSEDSAVYFCARCEFISTVVAPYYYALDYWGQGTSLVTVS", "VL": "DIVLTQSPASLAVSLGQKATISCKASKKVTIFGSISALHWYQQKPGQPPKLIYNGAKLESGVSARFSDSGSQNRSPFGNQLSFTLTIDPVEADDAATYYCLQNKEVPYTFGGGTKLEIKR", "notes": "Murine variable regions with human constant regions; also called 8C92H6.HC1LC1 Chimera; 8C9 chimera"}},
  "key": {"[1]": {"target": "T1, recombinant cynomologus IL-23 (cynomolgus, limits assumed)", "T1 construct": "also called cynomolgus IL-23; cyno IL23", "T1 chain 1": "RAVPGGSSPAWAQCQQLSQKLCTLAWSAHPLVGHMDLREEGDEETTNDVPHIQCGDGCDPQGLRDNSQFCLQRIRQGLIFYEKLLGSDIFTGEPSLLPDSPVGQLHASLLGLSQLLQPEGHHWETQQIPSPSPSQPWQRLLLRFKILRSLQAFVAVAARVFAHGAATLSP", "T1 chain 2": "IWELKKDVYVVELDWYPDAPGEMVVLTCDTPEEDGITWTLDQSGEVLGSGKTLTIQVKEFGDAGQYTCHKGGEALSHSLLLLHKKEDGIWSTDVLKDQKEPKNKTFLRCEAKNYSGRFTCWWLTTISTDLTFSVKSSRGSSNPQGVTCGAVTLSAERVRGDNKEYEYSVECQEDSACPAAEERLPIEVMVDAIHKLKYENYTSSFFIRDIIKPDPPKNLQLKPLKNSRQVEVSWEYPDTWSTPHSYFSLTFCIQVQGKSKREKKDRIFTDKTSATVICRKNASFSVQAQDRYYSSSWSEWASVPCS", "experiment": "IL-23/IL-23R inhibition ELISA (optimised protocol, OD450): plate coated with human IL23R Fc chimera, antibody pre-incubated with constant cynomolgus IL-23, bound IL-23 detected with biotinylated anti-human IL-12; purified antibody", "method": "Optimised protocol: Plates were coated with human IL23R Fc chimera at […] (phosphate buffered saline). 50 μl/well of this mixture was incubated overnight at 4° C. The plates were then washed three times with Phosphate Buffered Saline with 0.05% Tween 20 (PBST). Plates were blocked with 4% skim milk powder (Fluka BioChemika #70166) PBST 100 μl/well for a minimum of 1 hour at room temperature. The plates were then washed three times with Phosphate Buffered Saline+0.05% Tween 20 (PBST). Various concentrations of antibody were incubated in a separate plate with a constant concentration of IL-23 for 1 hour at room temperature. 50 ul of each mixture were transferred to the assay plate and incubated at RT for 1 hr. They were then washed three times with Phosphate Buffered Saline+0.05% Tween 20 (PBST). Bound IL23 was detected by anti human 1L12 Biotin labelled Ab (R&D systems BAF219) diluted to 100 ng/ml in 4% skim milk powder (Fluka BioChemika #70166) PBST. 50 μl/well of the biotinylated antibody was added and incubated at RT for 1 hour. The plates were then washed three times with Phosphate Buffered Saline+0.05% Tween 20 (PBST). SA HRP (GE healthcare RPN4401) was diluted 1/4000 in 4% skim m ilk powder (Fluka BioChemika #70166) PBS, 50 μl/well was added to the plates. The plates were then washed three times with Phosphate Buffered Saline+0.05% Tween 20 (PBST). 50 ul/well of TMB was added to the plates and incubated at RT for 15 min. 25 μl/well of 3 MH₂SO₄ was added to the wells already containing TMB. The plate was read at OD450 nm using the SOftmaxPRO versamax plate reader."}, "Endogenous human IL-23 [2]": {"target": "T2, Endogenous human IL-23 (human, UniProt Q9NPF7 20-189; P29460 23-328)", "T2 construct": "also called endogenous human IL-23 from stimulated dendritic cells", "T2 sequence 1": "T1 chain 1 with A12T, R75H, P131L", "T2 sequence 2": "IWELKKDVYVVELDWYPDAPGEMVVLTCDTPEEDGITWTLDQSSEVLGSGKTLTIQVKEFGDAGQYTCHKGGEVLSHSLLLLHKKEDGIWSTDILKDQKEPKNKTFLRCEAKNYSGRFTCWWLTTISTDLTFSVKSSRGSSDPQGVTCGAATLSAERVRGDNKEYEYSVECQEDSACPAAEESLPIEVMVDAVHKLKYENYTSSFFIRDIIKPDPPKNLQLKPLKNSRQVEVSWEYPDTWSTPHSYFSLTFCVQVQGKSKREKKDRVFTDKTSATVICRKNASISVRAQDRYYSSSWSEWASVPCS", "experiment": "receptor inhibition ELISA: plate coated with recombinant human IL-23 receptor, endogenous human IL-23 at 3.5 ng/ml pre-incubated with titrated purified antibody, bound IL-23 detected with biotinylated anti-human IL-12; 1% BSA", "method": "(§1) Recombinant human IL-23 Receptor (R&D systems 1400-IR-050) was coated onto 96 well plates at a concentration of 1 μg/ml. Endogenous human IL-23 at 3.5 ng/ml final, was pre incubated for 1 hour with a titration of purified antibody material before being added to the pre-coated plates. Detection was performed with biotinylated anti-human 1L12 (R&D systems BAF-219) followed by Streptavidin-HRP (GE Healthcare RPN 4401). This neutralisation ELISA used 1% BSA."}, "recombinant human IL-23": {"target": "T3, recombinant human IL-23 (human, UniProt Q9NPF7 20-189; P29460 23-328)", "T3 construct": "also called hIL-23", "T3 sequence 1": "T1 chain 1 with A12T, R75H, P131L", "T3 sequence 2": "T2 sequence 2", "experiment": "SPR (Biacore T100), CHO supernatant antibody captured on Protein A or anti-human IgG, IL-23 analyte at 256, 64, 16, 4, 1 nM"}, "Endogenous human IL-23 [3]": {"target": "T2, Endogenous human IL-23", "experiment": "receptor inhibition ELISA in 25% human pooled AB serum: plate coated with recombinant human IL-23 receptor, endogenous human IL-23 at 5 ng/ml pre-incubated with titrated purified antibody, bound IL-23 detected with biotinylated anti-human IL-12", "method": "as §1, with “5” for “3.5”, “incubated” for “incubated for 1 hour”, “mAbs” for “antibody material”, “IL12” for “1L12”, “BAF-219),” for “BAF-219)”, “25% human pooled AB type serum.” for “1% BSA.”"}},
  "note": "Substitutions are numbered along the chain they refer to.",
  "data": [
    {"binder": "B1", "values": [
      {"measurement": "IC50 (read off the curve)", "setting": "[1]", "result": "~0.7", "unit": "nM"},
      {"measurement": "IC50 (read off the curve)", "setting": "Endogenous human IL-23 [2]", "result": "~0.005", "unit": "mg/L"},
      {"measurement": "Kd", "setting": "recombinant human IL-23", "result": 0.92, "unit": "nM"},
      {"measurement": "koff", "setting": "recombinant human IL-23", "result": 0.00028, "unit": "s⁻¹"},
      {"measurement": "kon", "setting": "recombinant human IL-23", "result": 300000, "unit": "M⁻¹ s⁻¹"},
      {"measurement": "IC50 (read off the curve)", "setting": "Endogenous human IL-23 [3]", "result": "~0.01", "unit": "mg/L"}
    ]},
    {"binder": "B2", "values": [
      {"measurement": "IC50 (read off the curve)", "setting": "[1]", "result": "~2", "unit": "nM"},
      {"measurement": "IC50 (read off the curve)", "setting": "Endogenous human IL-23 [2]", "result": "~0.1", "unit": "mg/L"},
      {"measurement": "IC50 (read off the curve)", "setting": "Endogenous human IL-23 [3]", "result": "~0.02", "unit": "mg/L"}
    ]}
  ]
}
